B1: cytochrome P-450TYR from Sorghum bicolor (L.) Moench (enzyme)
chain: ATMEVEAAAATVLAAPLLSSSAILKLLLFVVTLSYLARALRRPRKSTTKCSSTTCASPPAGVGNPPLPPGPVPWPVVGNLPEMLLNKPAFRWIHQMMREMGTDIACVKLGGVHVVSITCPEIAREVLRKQDANFISRPLTFASETFSGGYRNAVLSPYGDQWKKMRRVLTSEIICPSRHAWLHDKRTDEADNLTRYVYNLATKAATGDVAVDVRHVARHYCGNVIRRLMFNRRYFGEPQADGGPGPMEVLHMDAVFTSLGLLYAFCVSDYLPWLRGLDLDGHEKIVKEANVAVNRLHDTVIDDRWRQWKSGERQEMEDFLDVLITLKDAQGNPLLTIEEVKAQSQDITFAAVDNPSNAVEWALAEMVNNPEVMAKAMEELDRVVGRERLVQESDIPKLNYVKACIREAFRLHPVAPFNVPHVALADTTIAGYRVPKGSHVILSRTGLGRNPRVWDEPLRFYPDRHLATAASDVALTENDLRFISFSTGRRGCIAASLGTAMSVMLFGRLLQGFTWSKPAGVEAVDLSESKSDTFMATPLVLHAEPRLPAHLYPSISI

Legend:
[1] = molecular target: NADPH-cytochrome P-450 oxidoreductase purified from Sorghum bicolor (Sorghum bicolor)
[2] = molecular target: NADPH-cytochrome P-450 oxidoreductase purified from Sorghum bicolor (Sorghum bicolor); remark: listed apart in the source

| Molecule | oxime production in reconstitution experiments in dilaurylphosphatidylcholine micelles (turnover rate) (nmol oxime per nmol P-450TYR per minute) [1] | conversion of L-tyrosine to p-hydroxyphenylacetaldehyde oxime by the enzyme reconstituted in DLPC micelles (turn-over number) [2] [min⁻¹] |
| --- | --- | --- |
| modified cytochrome P-450TYR, in which the 35 N-terminal amino acids are replaced by the nine N-terminal amino acids from bovine 17alpha hydroxylase, expressed in E. coli (from UniProt P05185) (enzyme) | 349 |  |
| B1 |  | 228 |

— patent US6133417
